Reference: the nanobody polyreactivity screen of Harvey et al. (2022)

Test: yeast display, Sf9 membrane polyspecificity reagent, FACS + sequencing; frameworks hold sequencing errors
Outline: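 A synthetic nanobody library was expressed on Saccharomyces cerevisiae BJ5465 by galactose induction for 36–48 hours. The library was stained for 1 hour at 4 °C with 10% biotinylated, detergent-solubilized Sf9 membrane reagent and enriched with streptavidin microbeads before FACS. Low and high (top ~1%) gates were set on anti-HA fluorescence for expression and streptavidin fluorescence for reagent binding, and each polyreactivity label reflects the gate of origin.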

| Sequence | polyreactivity (PSR sort gate) |
| --- | --- |
| QVQLVESGGGLVQAGGSLRLSCAASGRTFILYTMGWYRQAPGKERELVAAITTGGSTSYADSVKGRVTISRDNAKNTVYLQMNSLKPEDTAVYYCNALSRLRYKPRLYDYWGQGTQVTVSS | low polyreactivity |
| QVQLVESGGGLVQAGGSLRLSCAASGRTFIPYAMGWYRQAPGKERELVAAISYSGGSTYYADSVKGRFTISRDNAKNTVYLQMYSLKPEDTAVYYCNAYYGSYYYDYNYWGQGTQVSVSS | high polyreactivity |
| QVQLVESGGGLVQAGGSLRLSCAASGRTFIRNAMGWYRQAPGKERELVAAISRGGGTYYADSVKGRFTISRDNAKNTVYLQMNSLKPEDTAVYYCAAGFRSPYYWGQGTQVTVSS | high polyreactivity |
| QVQLVESGGGLVQAGGSLRLSCAASGRTFIRNAMGWYRQAPGKERELVASIRRSGGSTYYADSVKGRFTISRDNAKNTVYLQMNSLKPEDTAVYYSAAVHRFLLGYGYWGQGTQVTVSS | high polyreactivity |
| QVQLVESGGGLVQAGGSLRLSCAASGRTFIRYAMGWYRQAPGKESELVAAISSRGGRTHYADSVKGRFTISRDNAKNTVYLQMNSLKPEDTAVYYCAADLTYVTVPGASYDYWGQCTQVTVSS | low polyreactivity |
| QVQLVESGGGLVQAGGSLRLSCAASGRTFIRYAMGWYRQAPGNERELVAAISWSGDRTYYADSVKGRFTISRDNAKNTVYLQMNSLKPEDTAVYYCNAYRYLRTATFLKFDYWGQGTQVTVSS | high polyreactivity |
| QVQLVESGGGLVQAGGSLRLSCAASGRTFIRYTTGWYRQAPGTERELVAAITSTGRTYYADSVKGRFTISRDNAKNTVYLQMNSLKPEDTAVYYCAAEAGYGDYYYGYDYWGQGTQVTVSS | low polyreactivity |
| QVQLVESGGGLVQAGGSLRLSCAASGRTFISNVIGWYRKAPGKERDLVAAITWRGGRTHYADSVKGRFTISRDNAKITVYLQMNSLKPEDTAVYYCAARYIPIQYPSYRTWGGYSWGQGTQVTVSS | high polyreactivity |
| QVQLVESGGGLVQAGGSLRLSCAASGRTFISYAMGWYRQAPGKERELVAGISRGGSTYYADSVKGRFTISRDNAKNTVYLQMNSLKPEDTAVYYCAARRWISSHSYKYGYWGQGTQVTVSS | high polyreactivity |
| QVQLVESGGGLVQAGGSLRLSCAASGRTFIVNTMGWYRQAPGKERELVAAITARGGRTYYADSVKGRFTISRDNAKNTVYLQMNSLKPEDTAVYYCNARTPPREAERYYWGQGTQVTVSS | low polyreactivity |
| QVQLVESGGGLVQAGGSLRLSCAASGRTFIVYAMGWYRQAPGKERELVAAISGRGGGNTYYADSVKGSFTISRDNAKNTVYLQMNSLKPEDTAVYYCAADTYSWYSYRDYYYWGQGTQVTVSS | low polyreactivity |
| QVQLVESGGGLVQAGGSLRLSCAASGRTFIVYAMGWYRQAPGKERELVARISSGSRTSYADSVKGRFTISRDNAKNTVYLQMNSLKPEDTAVYYCAKSRVIKYEFDYWGQGTQVTVSS | low polyreactivity |
| QVQLVESGGGLVQAGGSLRLSCAASGRTFIYNTMGWYRQAPGKERELVAAITSGGSTNYADSVKGRFTISRDNAKNTVYLQMNSLKPEDTAVYYCATQGLSAPFDGFVNSRFDHWGQGTQVTVSS | low polyreactivity |
| QVQLVESGGGLVQAGGSLRLSCAASGRTFKAYAMGWYRQAPGKERELVAGISWSGGNTYYADSVKGRFTISRDNAKNTVYLQMNSLKPEDTAVYYCAASLGGLWEDDYWGQGTQVTVSS | high polyreactivity |
| QVQLVESGGGLVQAGGSLRLSCAASGRTFKDYAMGWYRPAPGKERELVAAISWSGGDTYYADSVKGRFTISRDNAKNTVYLQMNSLKPEDTAVYYCNADPSGVFFYSLEFDYWGQGTQVTVSS | low polyreactivity |
| QVQLVESGGGLVQAGGSLRLSCAASGRTFKGNAMGWYRQAPGKEIELVAAISKSGGRTYYADSVKGRFTISRDNAKNTVYLQMNSLKPEDTAVYYCAVDVGPTKVRFGYLGQGTQVTVSS | high polyreactivity |

| Sequence | polyreactivity (PSR sort gate) |
| --- | --- |
| QVQLVESGGGLVQAGGSLRLSCAASGRTFKGYAMGWYRQAPGKERELVAAISYRGGSTYYADSVKGRFTISRDKAKKTFYLQMNSLKPEDTAVYYCAADIQPYVYDGYPVGMDYWGQGTQVTVSS | high polyreactivity |
| QVQLVESGGGLVQAGGSLRLSCAASGRTFKHYAMGWYRPAPGKERELVATITNTGGRTNYADSVKGRFTISRDNAKNTVYLQMYSLKPEDTAVYYCNRVNDYYRPGGRPFGIFDYWGQGTQVTVSS | low polyreactivity |
| QVQLVESGGGLVQAGGSLRLSCAASGRTFKKYAMGWYRQAPGKERELVAAISWSGGTTYYADSVKGRFTISRDNAKNTVYLQMNSLKPEDTAVYYCAARVSRTGHGYYYFWGQGTQVTVSS | high polyreactivity |
| QVQLVESGGGLVQAGGSLRLSCAASGRTFKKYAMGWYRQAPGKERELVAAITGSGGSTYYADSVKVRYTISRDNAKNTVYLQMNSLKPEDTAVYYCAAYAYGVGHSQDGGNYWGQCTQVTVSS | low polyreactivity |
| QVQLVESGGGLVQAGGSLRLSCAASGRTFKPYAMGWYRQAPGKERELVAAISSRGTSTNYADSVKGRFTISRDNAKNTVYLQMNSLKPEDTAVYYCNRVLLPGPQYQWGKAYDYWGQGTQVTVSS | high polyreactivity |
| QVQLVESGGGLVQAGGSLRLSCAASGRTFKRYAMGWYRQAPGKERELVAAISWSGTSTHYADSVKGRFTISRDNAKNTVYLQMNSLKPEDTAVYYCAARRYPVLNYDYWGQGTQVNVSS | high polyreactivity |
| QVQLVESGGGLVQAGGSLRLSCAASGRTFKSNAMRWYRQAPGKERELVATISRGGGSTYYADSVKGRFTISRDNAKNTVYLQMNSLKPEDTAVYYCAIGSNSYLRYHYTYPYDYWGQGTQVTVSS | high polyreactivity |
| QVQLVESGGGLVQAGGSLRLSCAASGRTFKSYAMGWYRQAPGKERELVAAISRSSGSTYYADSVKGRFTISRDNAKNTVYLQMNSLKPEDTAVYYCATTKRVGYNYWGQGTQVTVSS | high polyreactivity |
| QVQLVESGGGLVQAGGSLRLSCAASGRTFKSYTLGWYRQAPGKEREFVAAISSRGGNTYYADSVNGRFTISRDNAKNTVYLQMNSLKPEDTAVYYSAAESSFWSFPTYDYWGQGTQVTVSS | high polyreactivity |
| QVQLVESGGGLVQAGGSLRLSCAASGRTFKTYARGWYREAPGKERELVAAISRDGRTYYADSVKGRFTISRDNAKNTVYLQRNSLKPEDTAVYYCAVGIYDHLYNHEYWGQGTQVTVSS | low polyreactivity |
| QVQLVESGGGLVQAGGSLRLSCAASGRTFKTYTMGWYRQEPGKERELVAVISSGGGSTNYADSVKGRFTISRDNAKNTVYLQMNSLKPEDTAVYYCAARKTGRPKYRYDYWGQGTQVTVSS | low polyreactivity |
| QVQLVESGGGLVQAGGSLRLSCAASGRTFKYNAMGWYRQAPGKERELVAAISDRGTRKYYADSVKGRFTISRDNAKNSVYLQMNSLKPEDTAVYYCAARVTGKDRWYIYYWGQGTQVTVSS | high polyreactivity |
| QVQLVESGGGLVQAGGSLRLSCAASGRTFKYNAMGWYRQAPGKERELVAVIRYSGGTTYYADSVKGRFTISRDNAKNTVYLQMNSLKPEDTAVYYCNADGPYVLPGWYFRTDNSWGQGTQVTVSS | low polyreactivity |
| QVQLVESGGGLVQAGGSLRLSCAASGRTFKYNAMGWYRQAPGKERELVAVISRSTGRTYYADSVKGRFTISRDNAKNTFYLQMNSLKPEDTAVYSCNRVSRQYYYQRGFEYDYWGQGTQVTVSS | high polyreactivity |
| QVQLVESGGGLVQAGGSLRLSCAASGRTFKYYAMGWYRQAPGKERELVAAINSGGITYYADSVKGRFTISRDNAKNTVYLQMNSLKPEDTAVYYCAKVWKIGVLRYPSYGYYYWGQGTQVTVSS | high polyreactivity |
